Results reported in IntAct's records for PubMed 19233177.

B1: Polycomb complex protein BMI-1 (Homo sapiens), P35226 (parent)
chain: MHRTTRIKITELNPHLMCVLCGGYFIDATTIIECLHSFCKTCIVRYLETSKYCPICDVQVHKTRPLLNIRSDKTLQDIVYKLVPGLFKNEMKRRRDFYAAHPSADAANGSNEDRGEVADEDKRIITDDEIISLSIEFFDQNRLDRKVNKDKEKSKEEVNDKRYLRCPAAMTVMHLRKFLRSKMDIPNTFQIDVMYEEEPLKDYYTLMDIAYIYTWRRNGPLPLKYRVRPTCKRMKISHQRDGLTNAGELESDSGSDKANSPAGGIPSTSSCLPSPSTPVQSPHPQFPHISSTMNGTSNSPSGNHQSSFANRPRKSSVNGSSATSSG

Variants of: B1
Conditions: with ubc_human UBC

Variant | effect of a mutation on the interaction
MHRTTRIKITELNPHLMYVLCGGYFIDATTIIECLHSFCKTCIVRYLETSKYCPICDVQVHKTRPLLNIRSDKTLQDIVYKLVPGLFKNEMKRRRDFYAAHPSADAANGSNEDRGEVADEDKRIITDDEIISLSIEFFDQNRLDRKVNKDKEKSKEEVNDKRYLRCPAAMTVMHLRKFLRSKMDIPNTFQIDVMYEEEPLKDYYTLMDIAYIYTWRRNGPLPLKYRVRPTCKRMKISHQRDGLTNAGELESDSGSDKANSPAGGIPSTSSCLPSPSTPVQSPHPQFPHISSTMNGTSNSPSGNHQSSFANRPRKSSVNGSSATSSG [C18Y] | increasing interaction
